Patent publication US20200247897A1 (Genmab, published 2020)

What was measured:
murine DR5 = target: T1, murine DR5 (mouse (Mus musculus), UniProt Q9QZM4 53-381); experiment: flow cytometry on transfected CHO cells
T1 construct: also called mouse DR5

[1] = target: T2, cynomolgus monkey DR5 protein with deletion of amino acids 185-213 and death domain loss-of-function mutation … (cynomolgus monkey (Macaca fascicularis)); experiment: flow cytometry on cynomolgus DR5-transfected CHO cells; four experiments
T2 construct: also called Cyno DR5Mfdel-K420N
T2 chain: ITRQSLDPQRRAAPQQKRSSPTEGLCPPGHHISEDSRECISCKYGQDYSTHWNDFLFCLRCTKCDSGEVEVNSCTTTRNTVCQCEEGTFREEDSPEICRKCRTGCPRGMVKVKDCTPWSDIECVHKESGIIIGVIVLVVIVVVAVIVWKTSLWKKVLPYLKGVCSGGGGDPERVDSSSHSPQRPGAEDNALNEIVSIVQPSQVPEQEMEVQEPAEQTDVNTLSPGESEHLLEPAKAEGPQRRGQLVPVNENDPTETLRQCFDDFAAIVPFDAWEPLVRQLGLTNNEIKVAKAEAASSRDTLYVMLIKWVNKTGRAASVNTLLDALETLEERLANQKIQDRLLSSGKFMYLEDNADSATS

[2] = target: T3, human DR5 (death receptor 5) on DR5-positive human colon cancer cells (human, UniProt O14763 56-440); experiment: flow cytometry on HCT 116 cells
T3 construct: Endogenous receptor of the cell lines; also called CD262; TRAILR2

T1 sequence (Q9QZM4 53-381 limits assumed): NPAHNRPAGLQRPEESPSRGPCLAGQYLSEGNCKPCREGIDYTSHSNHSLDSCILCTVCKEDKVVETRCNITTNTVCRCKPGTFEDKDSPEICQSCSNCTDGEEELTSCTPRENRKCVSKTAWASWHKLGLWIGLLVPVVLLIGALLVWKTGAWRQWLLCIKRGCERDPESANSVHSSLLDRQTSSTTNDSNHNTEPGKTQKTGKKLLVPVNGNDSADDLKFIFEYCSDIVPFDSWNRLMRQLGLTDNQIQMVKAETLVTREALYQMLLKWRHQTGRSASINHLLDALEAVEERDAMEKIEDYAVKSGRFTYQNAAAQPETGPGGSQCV

B1: IgG1-hDR5-05-F405L (antibody, name in EU numbering)
heavy: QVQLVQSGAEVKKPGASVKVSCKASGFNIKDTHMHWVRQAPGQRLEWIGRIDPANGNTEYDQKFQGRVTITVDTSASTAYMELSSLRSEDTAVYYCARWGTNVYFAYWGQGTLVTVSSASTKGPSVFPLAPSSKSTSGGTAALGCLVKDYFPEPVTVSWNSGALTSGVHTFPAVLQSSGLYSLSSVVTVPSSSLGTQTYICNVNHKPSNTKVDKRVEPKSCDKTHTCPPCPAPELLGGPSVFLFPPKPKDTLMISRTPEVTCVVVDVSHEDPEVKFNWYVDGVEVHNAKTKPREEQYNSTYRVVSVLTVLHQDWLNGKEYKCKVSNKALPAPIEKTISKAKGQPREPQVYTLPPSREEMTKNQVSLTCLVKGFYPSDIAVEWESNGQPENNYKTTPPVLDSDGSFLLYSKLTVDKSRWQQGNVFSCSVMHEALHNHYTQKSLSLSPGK
light: DIQLTQSPSSLSASVGDRVTITCSASSSVSYMYWYQQKPGKAPKPWIYRTSNLASGVPSRFSGSGSGTDFTLTISSLQPEDFATYYCQQYHSYPPTFGGGTKVEIKRTVAAPSVFIFPPSDEQLKSGTASVVCLLNNFYPREAKVQWKVDNALQSGNSQESVTEQDSKDSTYSLSSTLTLSKADYEKHKVYACEVTHQGLSSPVTKSFNRGEC
notes: Expressed as IgG1,kappa; also called humanized DR5-05
B1: no binding (tested: 10 µg/mL) (murine DR5).

B2: IgG1-hDR5-05-E430G (antibody)
heavy: not shown
light: DIQLTQSPSSLSASVGDRVTITCSASSSVSYMYWYQQKPGKAPKPWIYRTSNLASGVPSRFSGSGSGTDFTLTISSLQPEDFATYYCQQYHSYPPTFGGGTKVEIKRTVAAPSVFIFPPSDEQLKSGTASVVCLLNNFYPREAKVQWKVDNALQSGNSQESVTEQDSKDSTYSLSSTLTLSKADYEKHKVYACEVTHQGLSSPVTKSFNRGEC
B2 was tested, and the EC50 [1] was 0.17 mg/L.

B3: IgG1-hDR5-05-N55D-F405L (antibody, V domains shown)
VH: QVQLVQSGAEVKKPGASVKVSCKASGFNIKDTHMHWVRQAPGQRLEWIGRIDPADGNTEYDQKFQGRVTITVDTSASTAYMELSSLRSEDTAVYYCARWGTNVYFAYWGQGTLVTVSS
VL: DIQLTQSPSSLSASVGDRVTITCSASSSVSYMYWYQQKPGKAPKPWIYRTSNLASGVPSRFSGSGSGTDFTLTISSLQPEDFATYYCQQYHSYPPTFGGGTKVEIKR
B3: binds [2].
